Measurements published in the supplement of paper PMC9732359.
± gives the uncertainty stated by the source.

experiment: protein stability index of a GFP-peptide fusion (yeast GPS) (PSI 1-4); higher = more stable; sorted into four equal gates, so the index is relative within each strain; conditions: san1∆
Outline: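 Mid-log yeast cultures in leucine-free medium, carrying a pooled plasmid library, were sorted into four equal gates by their GFP/Cherry fluorescence ratio. Each plasmid expressed Cherry along with GFP fused upstream of a tiled 17-residue yeast protein peptide. Plasmids recovered from each gate were PCR-amplified and Illumina-sequenced, with reads assigned to strains by barcodes. The protein stability index was obtained by summing each gate's read frequency weighted by its gate number.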

Sequence | protein stability index
SKKNRPTLQVGDLVYAR [RRP40] | 1.87 ± 0.12
SKKQRNNGSKDHGDGIL [RPN9] | 3.27 ± 0.057
SKKTGQFNAQGVRDINC [POP1] | 3.16 ± 0.12
SKKTSPKATSSAGAVFK [YOR098C/NUP1] | 2.54 ± 0.085
SKLGKNLQTVHFGHCFN [GRR1] | 2.68 ± 0.11
SKNAQFICTTFRTDMLQ [SMC3] | 1.5 ± 0.13
SKPVLIVGQKNLNRAFN [DIS3] | 2.77 ± 0.055
SKQDLIHSLIPVAKWFV [SIN4] | 2.9 ± 0.061
SKQQAKGAFQKVAATSR [RPL24A] | 2.84 ± 0.036
SKRWAQRTLSKSFYSTA [CYT1] | 2.19 ± 0.063
SKRYIPSVNDFVIGVII [RRP40] | 2.17 ± 0.078
SKSNLIHNYDSKKSTIT [RGR1] | 3.05 ± 0.04
SKSVPTPSLPIAPPVAP [SNF5] | 3.1 ± 0.045
SLAKSSALWSSRKGIAF [ECM29] | 1.83 ± 0.12
SLASCLRSTEYSKSFEQ [POP1] | 2.89 ± 0.083
SLDDNSTSLEKQINSIK [YJL041W/NSP1] | 2.97 ± 0.045
SLDEILLPANLLSLNSV [SRP68] | 3.14 ± 0.05
SLDLNNLELGGLNMDFL [PGD1] | 3.37 ± 0.082
SLELQSFQKIPLSRINE [YML103C/NUP188] | 2.94 ± 0.07
SLFELIVPIFQLISAVL [YJL039C/NUP192] | 1.7 ± 0.097
SLILKESGSTPISISNA [YAR002W/NUP60] | 1.45 ± 0.11
SLKNTDALLNSTTEHIN [YJL039C/NUP192] | 2.13 ± 0.12
SLLGGFDENIARDIISH [PCI8] | 2.71 ± 0.044
SLLLSSVKESTGMSSMS [SRB4] | 1.57 ± 0.21
SLQDRSSLVRRNSVKLL [YCS4] | 1.94 ± 0.062

Sequence | protein stability index
SLQRSKSSFVKESAVIS [SMC1] | 2.17 ± 0.067
SLQYINIRGNTIRQIIL [SMD1] | 2.73 ± 0.1
SLRILAKLSERSNGSVA [YJL039C/NUP192] | 1.93 ± 0.067
SLSDEVMRNEIRITSLQ [SIR4] | 2.81 ± 0.067
SLSKISQAFDIVAALPI [RPP1] | 2.97 ± 0.13
SLSNPNSTATMQHNPLA [PGD1] | 2.96 ± 0.034
SLTAEAMTAAEHGLHAP [CYT1] | 2.94 ± 0.057
SLTPTQSDSAKVEIKKV [PRP28] | 2.92 ± 0.093
SLVNSYIIDSPQPSSIN [COB] | 1.64 ± 0.15
SLYPPPPPYVKFFTQSN [MED7] | 2.16 ± 0.072
SMFSGLDSTGFDSTAFN [MED2] | 3.19 ± 0.034
SMINNSNQAVGQTWNFP [SRB8] | 3.15 ± 0.13
SMKANTSTNPNGLGTSH [ARP7] | 2.95 ± 0.078
SNDFEEGSTIRYLAVTL [YMR129W/POM152] | 2.12 ± 0.062
SNDTTAFNDSCVNLSLF [SRB8] | 3.13 ± 0.06
SNFTSIIGPNGSGKSNM [SMC1] | 3.37 ± 0.12
SNIELAFSSVEHIIRDV [COB] | 2.79 ± 0.079
SNIPNLLRNLESKMRQQ [YDL088C/ASM4] | 2.97 ± 0.12
SNIQRNVLFLRLFNNVK [SRP72] | 1.49 ± 0.076
SNTNDNISIITLELESF [RGR1] | 2.25 ± 0.098
SNTTTQIQFTPLIKKIK [SMC3] | 2.71 ± 0.095
SNVNSDIYFKLKKLEKE [RPT3] | 2.93 ± 0.086
SNYAASNSMDRSSSASN [SWI1] | 2.88 ± 0.07
SPELKADLRPLQIKSIR [RPS7B] | 2.67 ± 0.13
SPFGAYGEAPTSPGFGV [RPO21] | 2.98 ± 0.076

Sequence | protein stability index
SPIFEVLSDDAKKLSSF [ARP9] | 2.88 ± 0.058
SPLQKEEALNFDISMAD [SSN2] | 3.18 ± 0.07
SPLYMDTETFDTVNSAL [YML103C/NUP188] | 3.18 ± 0.074
SPMGAQPSYNSAIIENA [GAL11] | 2.5 ± 0.1
SPNFKNYLKYLEYWCNP [SOH1] | 1.88 ± 0.053
SPRFNVKIGDIEKWTAN [RPS22A] | 2.85 ± 0.065
SPTINRANVYVGFLVQL [PRP8] | 1.98 ± 0.1
SPYGNLQNDLIHKIQND [RPN5] | 2.82 ± 0.07
SQIFDQLKDMQTIEMIT [SRB8] | 2.72 ± 0.049
SQKTKTIQSDLNLSLHK [SMC2] | 2.19 ± 0.071
SQLDLFLRTMKLTSEET [GRR1] | 3 ± 0.06
SQLNIQLSQDEHSQVEQ [SRP72] | 3.16 ± 0.048
SQLPITPMTRISELPPQ [YGL172W/NUP49] | 2.13 ± 0.051
SQPNNTPSFSFGKTTAN [YLR335W/NUP2] | 2.78 ± 0.058
SQSQQKLLKEKVKLFHG [MED2] | 3.07 ± 0.057
SQVDPITLFVLVSVVEA [FAS2] | 2.48 ± 0.077
SQVFGVARIYASFNDTF [RPS14A] | 2.11 ± 0.073
SREAVRHFGMGPHKGKA [RPL18A] | 3.04 ± 0.098
SRGFEVMYNGHTGKKLM [RPB2] | 2.71 ± 0.13
SRKETSRTATWLKNKFA [BRR2] | 1.67 ± 0.11
SRLKALNLQFKAKVDDL [YLR335W/NUP2] | 3.05 ± 0.1
SRSTDNFHNSKKRMNSN [RRI1] | 2.26 ± 0.1
SRTLILSILNEIKKVTQ [SIN4] | 2.27 ± 0.11
SRYEPKVFDCGDNIVMS [PRE7] | 2.89 ± 0.11
SSDAFEVDVCDKCGLMG [RET1] | 2.33 ± 0.19

Sequence | protein stability index
SSDGQLKKFRESLVHSA [BRR2] | 3.22 ± 0.16
SSEYETINISLSFSWAI [NUT1] | 2.21 ± 0.13
SSFEKFNDSQAIVCYIL [SRP72] | 2.42 ± 0.042
SSHAKGIVLEKLGIESK [RPS23A] | 2.67 ± 0.095
SSIDRGFGRCETRRKTT [RET1] | 2.21 ± 0.13
SSIENNINNNINSTKNG [MED2] | 2.88 ± 0.084
SSKKVFSSNLSYANHLE [YOR098C/NUP1] | 2.1 ± 0.078
SSKLVDVYTLPSYVHFK [YML103C/NUP188] | 1.69 ± 0.061
SSKPAFNLISNAGTEKE [YLR335W/NUP2] | 3.13 ± 0.065
SSLKESSPDTMKLTDLL [SNF12] | 2.71 ± 0.098
SSLMNGLGYVFEFQYLT [SRB5] | 1.64 ± 0.084
SSNILEDILYYSTCPSE [SRB8] | 2.77 ± 0.059
SSSIKSTGPTGAVSLNP [RRP4] | 3.231 ± 0.027
SSSKQQSRLFINELVLE [SMC4] | 2.58 ± 0.16
SSSKSMINDENYIINDI [SRB8] | 2.63 ± 0.074
SSSNGGGSAKPSLKFKP [RPC53] | 2.74 ± 0.093
SSSSDIIVPDLIELKSD [YML103C/NUP188] | 2.67 ± 0.13
SSSTQNVFVILMDKCLP [DIS3] | 2.13 ± 0.052
SSTPKFTKKPVTPNDKI [SIR4] | 2.96 ± 0.062
STAFVPTIEYVQCPTVI [ARP9] | 1.71 ± 0.08
STCIVSLIRNNLHAEGW [ECM29] | 2 ± 0.077
STRASTVPNLPTTMVTN [ISW2] | 2.35 ± 0.058
STTAALQSISSLTISLY [RPN7] | 1.95 ± 0.049
STTTSLHVPNLQPPKTS [SMC4] | 2.1 ± 0.046

same assay, conditions: ubr1∆

Sequence | protein stability index
SKKLNLKIHQSHLVVPY [YMR129W/POM152] | 2.88 ± 0.14
SKKNRPTLQVGDLVYAR [RRP40] | 2.46 ± 0.043
